In article PMC9279676, “ERK2 MAP kinase regulates SUFU binding by multisite phosphorylation of GLI1” (Life Science Alliance, 2022):
Substitutions are numbered along the chain they refer to.

Key:
[1] = molecular target: T1, full-length GLI1^G122A,H123A, 35S-radiolabeled (human, UniProt P08151-1 1-1106, G122A | H123A, [35S]-methionine label); experiment: pull-down; purified GST-SUFU, 1.25-80 nM, captured on glutathione-Sepharose beads; ∼1 pmol 35S-GLI1 (1-232 or full length) in 200 μl; 15 min at 30°C, then 1 h at room temperature; Binding Buffer + 1 mg/ml BSA; bound GLI1 quantified by SDS-PAGE and Phosphorimager; Kd from binding isotherms; settings: one partner purified
T1 construct: human GLI1, full length (1,106 residues); also called G122A, H123A double substitution; source: in vitro transcription/translation, partially purified by ammonium sulfate precipitation
T1 sequence (looked up): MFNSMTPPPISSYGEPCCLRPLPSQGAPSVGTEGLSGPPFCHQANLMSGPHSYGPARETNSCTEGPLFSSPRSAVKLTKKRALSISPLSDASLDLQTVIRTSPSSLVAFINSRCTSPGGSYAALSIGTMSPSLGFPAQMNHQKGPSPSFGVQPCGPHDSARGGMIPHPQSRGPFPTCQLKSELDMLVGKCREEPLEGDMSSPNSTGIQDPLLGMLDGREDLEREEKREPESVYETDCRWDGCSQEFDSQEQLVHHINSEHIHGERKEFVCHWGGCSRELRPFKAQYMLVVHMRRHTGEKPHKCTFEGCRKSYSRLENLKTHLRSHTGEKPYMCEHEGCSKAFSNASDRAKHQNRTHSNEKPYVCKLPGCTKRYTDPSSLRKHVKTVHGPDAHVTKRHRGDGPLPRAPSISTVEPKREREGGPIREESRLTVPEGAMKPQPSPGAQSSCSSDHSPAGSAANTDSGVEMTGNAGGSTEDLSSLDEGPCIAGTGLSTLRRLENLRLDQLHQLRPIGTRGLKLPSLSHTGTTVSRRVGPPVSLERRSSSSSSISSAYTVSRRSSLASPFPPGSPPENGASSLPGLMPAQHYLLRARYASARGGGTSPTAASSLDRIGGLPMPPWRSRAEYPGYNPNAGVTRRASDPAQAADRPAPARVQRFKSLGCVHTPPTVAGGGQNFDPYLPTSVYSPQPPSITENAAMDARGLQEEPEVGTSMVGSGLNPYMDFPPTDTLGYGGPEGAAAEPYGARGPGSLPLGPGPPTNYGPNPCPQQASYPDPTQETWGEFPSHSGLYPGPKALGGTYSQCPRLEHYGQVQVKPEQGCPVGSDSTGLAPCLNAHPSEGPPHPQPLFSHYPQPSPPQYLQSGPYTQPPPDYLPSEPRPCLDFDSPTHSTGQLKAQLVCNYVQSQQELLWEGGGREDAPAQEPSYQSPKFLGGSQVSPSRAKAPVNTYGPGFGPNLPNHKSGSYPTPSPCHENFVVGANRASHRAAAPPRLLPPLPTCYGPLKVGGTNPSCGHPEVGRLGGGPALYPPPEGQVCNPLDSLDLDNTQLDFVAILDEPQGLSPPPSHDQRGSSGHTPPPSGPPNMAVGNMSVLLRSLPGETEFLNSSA

[2] = molecular target: T2, GLI1_(1-232) S102E S116E S130E, 35S-radiolabeled (human, UniProt P08151-1 1-232, S102E | S116E | S130E, [35S]-methionine label)
T2 sequence: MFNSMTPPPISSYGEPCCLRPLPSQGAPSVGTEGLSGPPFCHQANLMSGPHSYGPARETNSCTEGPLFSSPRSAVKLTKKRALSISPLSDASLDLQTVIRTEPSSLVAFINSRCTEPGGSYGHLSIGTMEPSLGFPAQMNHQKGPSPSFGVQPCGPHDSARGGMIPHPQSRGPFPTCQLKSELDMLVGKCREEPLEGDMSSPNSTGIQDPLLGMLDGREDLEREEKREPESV

[3] = molecular target: T3, GLI1_(1-232) S102E S130E, 35S-radiolabeled (human, UniProt P08151-1 1-232, S102E | S130E, [35S]-methionine label)
T3 sequence: T2 sequence with E116S

[4] = molecular target: T4, GLI1_(1-232) S116E, 35S-radiolabeled (human, UniProt P08151-1 1-232, S116E, [35S]-methionine label)
T4 sequence: T2 sequence with E102S, E130S

[5] = molecular target: T5, GLI1_(1-232) S116E S130E, 35S-radiolabeled (human, UniProt P08151-1 1-232, S116E | S130E, [35S]-methionine label)
T5 sequence: T2 sequence with E102S

B1: GST-SUFU (fusion of GST to full-length human SUFU) (natural protein, UniProt Q9UMX1-1 1-484, looked up)
chain: MAELRPSGAPGPTAPPAPGPTAPPAFASLFPPGLHAIYGECRRLYPDQPNPLQVTAIVKYWLGGPDPLDYVSMYRNVGSPSANIPEHWHYISFGLSDLYGDNRVHEFTGTDGPSGFGFELTFRLKRETGESAPPTWPAELMQGLARYVFQSENTFCSGDHVSWHSPLDNSESRIQHMLLTEDPQMQPVQTPFGVVTFLQIVGVCTEELHSAQQWNGQGILELLRTVPIAGGPWLITDMRRGETIFEIDPHLQERVDKGIETDGSNLSGVSAKCAWDDLSRPPEDDEDSRSICIGTQPRRLSGKDTEQIRETLRRGLEINSKPVLPPINPQRQNGLAHDRAPSRKDSLESDSSTAIIPHELIRTRQLESVHLKFNQESGALIPLCLRGRLLHGRHFTYKSITGDMAITFVSTGVEGAFATEEHPYAAHGPWLQILLTEEFVEKMLEDLEDLTSPEEFKLPKEYSWPEKKLKVSILPDVVFDSPLH
notes: human SUFU, full length (residues 1-484), BamHI-SUFU-SalI cassette in pGEX-LB; pGEX-LB carries a Gly-Gly-Gly-Gly-Gly-Ser-Gly stretch between GST and the fused protein; also called full-length GST-SUFU; source: Escherichia coli, purified (glutathione-Sepharose); not shown: GST, N-terminal, kept
- Kd [1]: 120 ± 35 nM
- Kd [2]: 520 nM
- Kd [3]: 300 nM
- Kd [4]: 7 nM
- Kd [5]: 19 nM
